# How the values were obtained:
# Experiment in all cases: NMR
# Cys34 = Cys34 (UniProt position 34, DWCGHCQAAQP); settings: 298 K; reduced (dithiol) Patrx2, with DTT
# Cys31 = Cys31 (UniProt position 31, FGTDWCGHCQA); settings: 298 K; reduced (dithiol) Patrx2, with DTT
# His33 = His33 (UniProt position 33, TDWCGHCQAAQ); settings: 298 K
substance,measurement,setting,value
"Patrx2 (atypical thioredoxin, PA2694) (Pseudomonas aeruginosa)",pKa,Cys34,greater than 11.5
same,pKa,Cys31,5.8
same,pKa,"His33; oxidised (C31-C34 disulfide) Patrx2, without DTT",less than 5
same,pKa,"His33; reduced (dithiol) Patrx2, with DTT",6.3

# — PMC12830090
